{"source": "paper PMC1326249", "target": "U1A N-terminal RRM wild type (human, UniProt P09012 2-98)", "sequence (P09012 2-98)": "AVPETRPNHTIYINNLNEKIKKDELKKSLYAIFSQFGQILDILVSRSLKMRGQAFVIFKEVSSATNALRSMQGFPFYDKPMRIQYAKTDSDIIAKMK", "experiment": "SPR"}
{"binder": "AGCUUAUCCAUUGCACUCCGGAUAAGCU (structured_RNA)", "note": "[U1hpII]", "values": [{"measurement": "Kd", "result": 0.07, "unit": "nM"}]}
